One series has as its target GUS (beta-glucuronidase) (UniProt P05804 1-603). Put plainly: EMSA; 25-75 ng protein; 20 mM HEPES-KOH pH 7.9, 20% glycerol, 0.2 mM EDTA, 100 mM KCl, 0.5 mM PMSF, 1 mM DTT, 15 mM MgCl2, 5 ug BSA; 175 fmol probe in 20 ul; gel 7% PAGE, 0.5X TBE, 4 C; binding temperature not stated. As to conditions: protein: recombinant; label: 32P by Klenow fill-in when probe; 5' overhang 4 nt at both ends; labeled probe filled in. For orientation: Mobility shift assays separate free from complexed probe on a gel.

For series [1], the target named is T1, TcJAMYC1 (Taxus cuspidata (cell culture line P991), UniProt B9VVN9 1-660). Put plainly: EMSA; 25-100 ng protein; 20 mM HEPES-KOH pH 7.9, 20% glycerol, 0.2 mM EDTA, 100 mM KCl, 0.5 mM PMSF, 1 mM DTT, 15 mM MgCl2, 5 ug BSA; 175 fmol probe in 20 ul; gel 7% PAGE, 0.5X TBE, 4 C; binding temperature not stated. Conditions: protein: recombinant; tags: N-terminal 6xHis (pDEST17); chain copies: 2; label: 32P by Klenow fill-in when probe; 5' overhang 4 nt at both ends; labeled probe filled in.
T1 sequence (B9VVN9 entry or part of it): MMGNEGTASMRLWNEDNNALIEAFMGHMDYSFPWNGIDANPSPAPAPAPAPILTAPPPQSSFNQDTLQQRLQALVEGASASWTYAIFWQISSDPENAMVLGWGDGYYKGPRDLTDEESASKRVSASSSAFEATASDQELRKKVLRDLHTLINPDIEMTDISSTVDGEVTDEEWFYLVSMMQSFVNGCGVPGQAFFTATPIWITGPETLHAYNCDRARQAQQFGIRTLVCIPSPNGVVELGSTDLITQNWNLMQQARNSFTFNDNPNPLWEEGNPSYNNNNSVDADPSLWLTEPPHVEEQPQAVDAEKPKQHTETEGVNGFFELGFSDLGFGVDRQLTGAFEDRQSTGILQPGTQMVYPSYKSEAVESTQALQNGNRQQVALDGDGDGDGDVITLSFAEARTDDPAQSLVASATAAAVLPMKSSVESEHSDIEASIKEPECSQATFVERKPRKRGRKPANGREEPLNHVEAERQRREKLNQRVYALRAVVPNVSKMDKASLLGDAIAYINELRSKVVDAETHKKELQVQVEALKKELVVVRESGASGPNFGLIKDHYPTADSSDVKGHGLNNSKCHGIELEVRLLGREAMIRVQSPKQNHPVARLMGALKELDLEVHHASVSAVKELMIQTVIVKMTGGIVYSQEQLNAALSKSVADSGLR

Series [2] concerns the target T1, TcJAMYC1. Put plainly: EMSA; 25-75 ng protein; 20 mM HEPES-KOH pH 7.9, 20% glycerol, 0.2 mM EDTA, 100 mM KCl, 0.5 mM PMSF, 1 mM DTT, 15 mM MgCl2, 5 ug BSA; 175 fmol probe in 20 ul; gel 7% PAGE, 0.5X TBE, 4 C; binding temperature not stated. As to conditions: protein: recombinant; tags: N-terminal 6xHis (pDEST17); chain copies: 2; label: 32P by Klenow fill-in when probe; 5' overhang 4 nt at both ends; labeled probe filled in.

Series [3] addresses T1, TcJAMYC1. Put plainly: competition EMSA; vs CATGTG probe; competes better than CATGTG self; 20 mM HEPES-KOH pH 7.9, 20% glycerol, 0.2 mM EDTA, 100 mM KCl, 0.5 mM PMSF, 1 mM DTT, 15 mM MgCl2, 5 ug BSA; 175 fmol probe in 20 ul; gel 7% PAGE, 0.5X TBE, 4 C; binding temperature not stated. As to conditions: protein: recombinant; tags: N-terminal 6xHis (pDEST17); chain copies: 2; label: 32P by Klenow fill-in when probe; 5' overhang 4 nt at both ends; labeled probe filled in.

Chain of GUS (beta-glucuronidase) (P05804 whole entry): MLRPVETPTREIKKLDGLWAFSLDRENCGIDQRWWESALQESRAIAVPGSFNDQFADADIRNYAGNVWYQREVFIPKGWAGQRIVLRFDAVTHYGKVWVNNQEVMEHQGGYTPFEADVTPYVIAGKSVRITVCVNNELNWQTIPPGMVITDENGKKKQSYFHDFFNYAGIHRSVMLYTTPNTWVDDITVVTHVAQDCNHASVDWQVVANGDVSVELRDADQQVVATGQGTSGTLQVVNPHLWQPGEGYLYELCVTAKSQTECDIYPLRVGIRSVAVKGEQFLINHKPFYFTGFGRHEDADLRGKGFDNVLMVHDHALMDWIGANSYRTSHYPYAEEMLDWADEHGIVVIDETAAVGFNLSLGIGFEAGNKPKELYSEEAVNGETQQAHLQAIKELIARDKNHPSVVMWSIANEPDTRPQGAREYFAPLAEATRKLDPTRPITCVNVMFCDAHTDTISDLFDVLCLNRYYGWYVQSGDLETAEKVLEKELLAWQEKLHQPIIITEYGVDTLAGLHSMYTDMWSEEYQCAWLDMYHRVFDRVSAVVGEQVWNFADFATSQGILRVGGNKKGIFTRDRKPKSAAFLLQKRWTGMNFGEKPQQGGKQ

B1: CATGTG E-box (dsDNA)
DNA 1: TAGCGCATCGATCATGTGATCGATCG
DNA 2: CGTACGATCGATCACATGATCGATGC
In the case of B1, the figures for the binding result with GUS (beta-glucuronidase) and with TcJAMYC1 [1] were “no binding” and “binds”, respectively.

B2: Mutated (no E-box) (dsDNA)
DNA 1: TAGCGCATCGATAAGCCTATCGATCG
DNA 2: CGTACGATCGATAGGCTTATCGATGC
B2: the binding result in the series with TcJAMYC1 [2] is reported as “no binding”.

B3: CACGTG E-box (dsDNA)
DNA 1: TAGCATCGATCGCACGTGATCGATCG
DNA 2: CGTACGATCGATCACGTGCGATCGAT
Consider B3, for which the binding result in the series with TcJAMYC1 [3] is listed as “binds”.

Values taken from article PMC4341510, “Jasmonate-responsive expression of paclitaxel biosynthesis genes in Taxus cuspidata cultured cells is negatively regulated by the bHLH transcription factors TcJAMYC1, TcJAMYC2, and TcJAMYC4”.
